In one test the target is T1, WT (human, UniProt Q9NZQ7).
T1 construct: recombinant; also called hPD-L1; antigen PD-L1 wild type (WT)
As to the kind of experiment: ELISA on coated antigen, column WT. The procedure:
(§1) An antigen PD-L1 wild type (WT) or several mutants were coated at a density of 100 ng/well on a 96-well immunoplate at 4° C. for 16 hours and the wells were blocked with 4% skim milk dissolved in PBS. Each well was washed with 0.2 ml of PBS/T, and then a single clone scFv-phage (each […]) cultured for 16 hours was added in a dose of 100 μl to each well and reacted at room temperature for 2 hours. Again, each well was washed 4 times with 0.2 ml of PBS/T, and then the second antibody, anti-Fab, was diluted to 1/2000 and reacted at room temperature for 1 hour. After washing with 0.2 ml of PBS/T, color development was performed and absorbance was measured at 490 nm.
(In an ELISA, binding on a coated surface is turned into a signal by an enzyme label.)

The target of a further test is M5. As to the kind of experiment: ELISA on coated antigen, column M5. As for the experimental part:
as §1

In a further test the target is M2. Nature of the test: ELISA on coated antigen, column M2. As for the experimental part:
as §1

Another test has as its target T2, ITGA6.
T2 construct: unrelated antigen column; all antibodies give 0.5 to 0.6
T2 sequence (P23229 whole entry, species assumed, looked up): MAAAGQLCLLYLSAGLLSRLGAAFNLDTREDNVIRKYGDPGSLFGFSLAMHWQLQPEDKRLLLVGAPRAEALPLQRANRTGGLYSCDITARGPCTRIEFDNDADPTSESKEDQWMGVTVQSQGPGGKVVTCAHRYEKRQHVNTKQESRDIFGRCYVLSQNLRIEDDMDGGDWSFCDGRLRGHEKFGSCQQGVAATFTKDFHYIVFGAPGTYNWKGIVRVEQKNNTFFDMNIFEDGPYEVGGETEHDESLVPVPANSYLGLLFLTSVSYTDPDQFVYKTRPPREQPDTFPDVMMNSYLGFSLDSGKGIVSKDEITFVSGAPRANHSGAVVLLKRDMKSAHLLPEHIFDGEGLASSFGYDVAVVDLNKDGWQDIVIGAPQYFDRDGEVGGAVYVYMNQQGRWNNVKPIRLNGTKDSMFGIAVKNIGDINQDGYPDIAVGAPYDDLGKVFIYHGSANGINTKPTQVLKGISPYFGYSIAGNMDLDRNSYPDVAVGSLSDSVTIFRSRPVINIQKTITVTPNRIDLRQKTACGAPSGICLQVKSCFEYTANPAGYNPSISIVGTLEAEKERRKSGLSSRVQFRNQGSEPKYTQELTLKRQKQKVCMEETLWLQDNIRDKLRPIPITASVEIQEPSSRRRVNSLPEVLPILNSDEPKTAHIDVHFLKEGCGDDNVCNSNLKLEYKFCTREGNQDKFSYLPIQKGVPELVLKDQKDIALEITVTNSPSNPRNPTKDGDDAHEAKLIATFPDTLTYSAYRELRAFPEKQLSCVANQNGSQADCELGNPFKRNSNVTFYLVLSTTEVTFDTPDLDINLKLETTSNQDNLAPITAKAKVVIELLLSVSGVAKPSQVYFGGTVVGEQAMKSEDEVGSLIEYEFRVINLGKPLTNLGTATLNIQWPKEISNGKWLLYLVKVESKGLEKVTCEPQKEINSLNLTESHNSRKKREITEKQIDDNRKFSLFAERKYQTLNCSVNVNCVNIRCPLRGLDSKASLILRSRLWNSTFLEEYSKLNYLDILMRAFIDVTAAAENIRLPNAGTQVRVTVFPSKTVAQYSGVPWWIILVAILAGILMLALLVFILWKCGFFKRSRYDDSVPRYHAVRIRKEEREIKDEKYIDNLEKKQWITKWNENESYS
As to the kind of experiment: ELISA on coated antigen, column ITGA6.

The next test addresses M8. Nature of the test: ELISA on coated antigen, column M8. The procedure:
as §1

The next test has as its target M7. Nature of the test: ELISA on coated antigen, column M7.
The next test addresses mouse PD-L1 protein (mouse, UniProt Q9EP73 19-238, limits assumed). Nature of the test: ELISA on coated antigen, column mPD-L1. The procedure: as §1
The target in the next test is M6. Nature of the test: ELISA on coated antigen, column M6. The procedure: as §1
The target of another test is M3. As to the kind of experiment: ELISA on coated antigen, column M3.
For a further test, the target named is M4. As to the kind of experiment: ELISA on coated antigen, column M4. The procedure:
as §1

Test [1] concerns the target PD-L1 on CHO cell line highly expressing PD-L1 (PD-1/PD-L1 blockade bioassay kit, promega J1250) (UniProt Q9NZQ7 19-290, limits assumed). As to the kind of experiment: cell-based or functional assay.
A further test addresses M1. Nature of the test: ELISA on coated antigen, column M1. The procedure: as §1

Sequence of mouse PD-L1 protein (Q9EP73 19-238 limits assumed): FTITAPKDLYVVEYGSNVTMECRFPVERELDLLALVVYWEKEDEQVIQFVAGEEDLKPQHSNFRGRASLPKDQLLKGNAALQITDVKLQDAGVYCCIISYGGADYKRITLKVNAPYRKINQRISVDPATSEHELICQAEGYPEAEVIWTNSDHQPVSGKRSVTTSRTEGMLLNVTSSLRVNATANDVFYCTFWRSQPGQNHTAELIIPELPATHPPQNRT
T1 sequence (Q9NZQ7 19-238 limits assumed): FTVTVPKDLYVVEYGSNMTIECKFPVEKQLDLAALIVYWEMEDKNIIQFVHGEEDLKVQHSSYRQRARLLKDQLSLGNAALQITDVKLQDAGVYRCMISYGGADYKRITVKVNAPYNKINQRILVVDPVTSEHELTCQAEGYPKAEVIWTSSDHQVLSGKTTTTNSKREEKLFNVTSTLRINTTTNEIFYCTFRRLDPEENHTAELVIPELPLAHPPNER
Sequence of PD-L1 on CHO cell line highly expressing PD-L1 (PD-1/PD-L1 blockade bioassay kit, promega J1250) (Q9NZQ7 19-290 limits assumed): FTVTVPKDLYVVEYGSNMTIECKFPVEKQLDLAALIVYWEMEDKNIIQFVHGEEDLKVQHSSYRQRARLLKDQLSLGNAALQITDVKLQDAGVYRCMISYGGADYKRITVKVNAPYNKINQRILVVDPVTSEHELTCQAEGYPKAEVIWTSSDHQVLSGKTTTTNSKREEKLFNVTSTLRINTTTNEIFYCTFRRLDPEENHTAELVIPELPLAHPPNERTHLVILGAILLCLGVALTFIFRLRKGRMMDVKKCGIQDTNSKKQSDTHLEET

B1: PDL1-27F8 (antibody, V domains shown)
VH: QVQLVQSGAEVKKPGSSVKVSCKASGGTFSSSAFSWVRQAPGHGLEWMGRIIPMFDMTDYAQRFQGRLTIIADESSSTAYMELSSLRSEDTAVYYCARSNPHYMDVWGQGTTVTVSS
VL: QLVLTQPPSVSGAPGQRVTISCTGSNSDIGAGHDVHWYQQIPGTAPKVLIYGNTDRPSGVPDRFSGSKSGTSASLAITGLQAEDEADYYCQSYDSSLSGYVFGTGTKVTVL
notes: Only FR/CDR pieces are tied to the clone
Take B1: the “absorbance at 490 nm” value with WT came to 2.9; in the test with M5, 2.9; with M2, 2.5; with ITGA6, 0.5; with M8, 2; with M7, 3. Further, the “absorbance at 490 nm” value with mouse PD-L1 protein is 0.1; in the test with M6 it was 2.9; with M3, 0.9; with M4, 0.4; with M1 it was 2.6. For the same molecule, in the test with mouse PD-L1 protein, the binding result is listed as “no binding”. Also, the “Average *EC50 [nM], PD-1/PD-L1 blockade bioassay” value in [1] worked out at 1.1 nM.

B2: PDL1-23E5 (antibody, V domains shown)
VH: QVQLVQSGAEVVKPGSSVKVSCKASGDTFSRYAISWVRQAPGQAPEWMGRIIPVLGAANYARKFQDRVTITADISTTTAFMELTSLRSEDTAVYYCARSLSGYSLGAFDVWGPGTLVTVSS
VL: QLVLTQPPSVSGAPGQSVSISCIGSNSNIGTPYDVHWYQQIPGEAPKLLIYGSTNRPSGVPDRFSGSRSGSSASLDITGLQADDEAYYYCQSYDRSLGVSDVVFGGGTKLTVL
notes: as for B1
Regarding B2, the “absorbance at 490 nm” value is 2.5 with WT; 2.5 in the test with M5; 2.4 in the test with M2; 0.5 with ITGA6; 2.6 in the test with M8; 2.6 with M7. In addition, the “absorbance at 490 nm” value was 2.5 in the test with mouse PD-L1 protein; 2.5 with M6; 0.9 with M3; 0.5 in the test with M4; 2.4 in the test with M1. Moreover, the “Average *EC50 [nM], PD-1/PD-L1 blockade bioassay” value in [1] turned out to be 1.61 nM.

B3: PDL1-22B10 (antibody, V domains shown)
VH: QVQLVQSGAEVKKPGSSVKVSCRASGGTFSSYAISWVRQAPGQGLEWMGRIIPILGIANYAQKFQGRVTITADKSTSTAYMELSSLRSEDTAVYYCARDFVLSGSATVFDPWGQGTLVTVSS
VL: QFVLTQPPSVSGAPGQRVTISCTGSSTNIGAGYDVHWYQQLPGKAPKVVIYGNSNRPSGVLDRFSASKSATSASLAITGLQAEDEADYYCQSYDSSLSGYVFGTGTKVTVL
notes: as for B1
As for B3, the “absorbance at 490 nm” value with WT was found to be 2.5; with M5, 2.5; with M2 it was 2.3; with ITGA6 it was 0.5; in the test with M8 it was 2.6; with M7, 2.5. Also, the “absorbance at 490 nm” value was 0.2 with mouse PD-L1 protein; 2.5 with M6; 1 with M3; 0.4 with M4; 2.3 in the test with M1. Further, in the test with mouse PD-L1 protein, the binding result is listed as “no binding”.

B4: PDL1-31E6 (antibody, V domains shown)
VH: QVQLVQSGAEVKKPGSSVKVSCKASGGTFSSYAISWVRQAPGQGLEWMGGIIPIFGTANYAQKFQGRVTITADESTSTAYMELSSLRSEDTAVYYCARGGRSFGAFDSWGQGALVTVSS
VL: DIQMTQSPATLSLSPGERATLSCTASQSISSYLAWYQQKPGQAPRLLIYDSSNRATGIPARFSGSGSGTAFTLTISSLEPEDFAVYFCQQRGQWPLTFGGGTKVDIK
notes: as for B1
Consider B4, for which the “absorbance at 490 nm” value was found to be 2.2 with WT; 2.7 with M5; 1.8 with M2; 0.5 in the test with ITGA6; 1.9 in the test with M8; 2.5 with M7. Also, the “absorbance at 490 nm” value in the test with mouse PD-L1 protein is 1.3; with M6, 2.5; with M3, 1; with M4, 2.4; in the test with M1, 2.1.

B5: PDL1-23E10 (scFv, V domains shown)
VH: QMQLVESGAEVKKPGSSVKVSCKVSGENFRSHAISWVRQAPGQGLEWMGRIIPIVGLADYPQKFQGRVTISADESTGTAYMDLSSLRSEDTAVYYCVTGRPPWHWGQGILITVSS
VL: QLVLTQPPSVSGAPGQRVTISCTGSSSNIGAGYDVHWYQQLPGTAPKLLIYSNRNRPSGVPDRFSGSKSGTSASLAITGLQAEDEADYYCQSYDSSLSGPNYVFGTGTKVTVL
For the molecule B5, the “absorbance at 490 nm” value with WT was determined as 2.2; in the test with M5, 2.2; with M2, 2.1; in the test with ITGA6 it was 0.5; with M8, 1; in the test with M7, 2.3. Besides, the “absorbance at 490 nm” value in the test with mouse PD-L1 protein was 0.3; with M6, 2.2; in the test with M3, 0.7; with M4, 0.5; with M1, 2.1. Further, in the test with mouse PD-L1 protein, the binding result is recorded as “no binding”.

B6: PDL1-31D9 (antibody, V domains shown)
VH: QMQLVESGGGLVQPGGSLRLSCSASGFTFSSYVMHWVRQAPGKGLEYVSAISSNGGSTYYADSVKGRFTISRDNSKNTLYLQMSSLRSEDTAVYYCAREHFSTYSYGVDVWGPGTTVTVSS
VL: DIVMTQTPLSLPVTPGEPASISCRSSQSLLDSDDGNTYLDWYLQKPGQSPQLLIYMISFRASGVPDRFSGSGSGTDFTLKISRVEAEDSGIYYCMQRVEFPYTFGQGTKLEIK
notes: as for B1
Regarding B6, the “absorbance at 490 nm” value in the test with WT worked out at 2.5; with M5, 1.8; in the test with M2 it was 1.7; with ITGA6, 0.5; with M8, 1.8; with M7, 1.9. In addition, the “absorbance at 490 nm” value was 0.1 with mouse PD-L1 protein; 1.9 with M6; 2.5 with M3; 1.8 in the test with M4; 1.6 with M1. Besides, in the test with mouse PD-L1 protein, the binding result was “no binding”.

B7: PDL1-30B1 (antibody, V domains shown)
VH: QVQLVESGGGVVQPGRSLRLSCAASGFTFSSYAMHWVRQGPGKGLEWVAVISYDGSNEFYADSVKGRFTISRDNSKNTLYLQMNSLRAEDTAVYYCARGDYNGVYMDVWGQGTTVTVSS
VL: DIVMTQTPLSLSVTPGQPASISCKSSQSLLHSDGKTYLYWYLQKPGQSPQLLIYEVSKRFSGVPDRFSGSGSGTDFTLKIGRVEAEDVGVYYCMQGLHLPYTFGQGTKLEIK
notes: as for B1
In the case of B7, the “absorbance at 490 nm” value in the test with M5 came out at 2.6; with M2, 2.5; with ITGA6, 0.6; in the test with M8, 2.7; in the test with M7 it was 2.7; with mouse PD-L1 protein, 0.1. For the same molecule, the “absorbance at 490 nm” value came to 2.6 in the test with M6, 2.8 with M3, 2.6 in the test with M4 and 2.6 in the test with M1. Moreover, in the test with mouse PD-L1 protein, the binding result is listed as “no binding”.

The values above are taken from US20190322750A1 (Y BIOLOGICS, published 2019).
